Assay results taken from patent US20070128192A1 (AstraZeneca / MedImmune, published 2007).
Where two headings read alike, the source gives them in different places. One block for each binder: values may come before it.

Columns and labels:
human IL-13 [1] = target: T1, human IL-13 (human, UniProt P35225 15-146); experiment: cell-based or functional assay
murine IL-13 [2] = target: T2, murine IL-13 (mouse, UniProt P20109 21-131, limits assumed); experiment: cell-based or functional assay
T2 sequence (looked up): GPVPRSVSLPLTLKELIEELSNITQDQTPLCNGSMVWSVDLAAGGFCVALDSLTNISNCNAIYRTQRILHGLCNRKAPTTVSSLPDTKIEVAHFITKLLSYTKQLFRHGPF

murine IL-13 [3] = target: T2, murine IL-13; experiment: BIAcore, IgG4 coupled to CM5 chip, murine IL-13 passed over
[4] = target: T3, non-human primate IL-13 (rhesus and cynomolgus, identical), baculovirus expressed, carboxyl terminus affinity … (rhesus and cynomolgus monkey, UniProt Q5I6E4 21-132 (Macaca thibetana entry)); experiment: cell-based or functional assay
T3 chain: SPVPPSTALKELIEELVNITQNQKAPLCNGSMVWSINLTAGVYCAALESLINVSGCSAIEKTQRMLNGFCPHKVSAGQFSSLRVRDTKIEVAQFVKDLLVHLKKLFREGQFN

[5] = target: T4, wild type human IL-13, baculovirus expressed, carboxyl terminus affinity tag (human, UniProt P35225 33-146); experiment: cell-based or functional assay
human IL-13 [6] = target: T1, human IL-13; experiment: cell-based or functional assay; remark: listed apart in the source
[7] = target: native (naturally occurring) human IL-13 released from HDLM-2 cells (human, UniProt P35225 15-146); experiment: cell-based or functional assay
[8] = target: T3, non-human primate IL-13 (rhesus and …); experiment: cell-based or functional assay
[9] = target: human IL-13 variant (Q130R), baculovirus expressed, carboxyl terminus affinity tag (human, UniProt P35225 33-146); experiment: cell-based or functional assay
human IL-13 [10] = target: T1, human IL-13; experiment: BIAcore, IgG coupled to CM5 chip, IL-13 50 nM to 0.78 nM passed over
[11] = target: T4, wild type human IL-13, baculovirus …; experiment: cell-based or functional assay; remark: listed apart in the source

Sequence of human IL-13 variant (Q130R), baculovirus expressed, carboxyl terminus affinity tag (P35225 33-146 limits assumed, stated change not applied, form in doubt): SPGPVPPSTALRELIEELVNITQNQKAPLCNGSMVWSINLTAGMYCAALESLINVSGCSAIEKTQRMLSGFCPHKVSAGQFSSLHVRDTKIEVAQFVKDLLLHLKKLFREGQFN
Sequence of native (naturally occurring) human IL-13 released from HDLM-2 cells (P35225 other isoform, or with tags, fused parts or gaps): as the sequence (P35225 33-146 limits assumed, stated change not applied, form in doubt) above, with Q112R counted along it
T1 sequence (P35225 other isoform, or with tags, fused parts or gaps): as the sequence (P35225 33-146 limits assumed, stated change not applied, form in doubt) above, with Q112R counted along it
T4 sequence (P35225 other isoform, or with tags, fused parts or gaps): as the sequence (P35225 33-146 limits assumed, stated change not applied, form in doubt) above, with Q112R counted along it

IC50, TF-1 cell proliferation assay (human IL-13 [1]): 3 nM
B1: BAK615E3 scFv (scFv, V domains shown)
VH: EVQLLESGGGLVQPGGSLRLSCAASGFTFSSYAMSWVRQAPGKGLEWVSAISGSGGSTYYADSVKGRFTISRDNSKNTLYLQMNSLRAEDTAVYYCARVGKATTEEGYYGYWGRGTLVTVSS
VL: NFMLTQPHSVSESPGKTVTISCTRSSGSIASNYVQWYQQRPGSAPTTVIYDDNQRPSGVPDRFSGSIDSSSNSASLTISGLKTEDEADYYCQSYDSNNDVFGGGTKVTVL

IC50, TF-1 cell proliferation assay (murine IL-13 [2]): 185 nM
B2: BAK209B11 scFv (scFv, V domains shown)
VH: VQLQESGGGGLVQPGGSLRLSCAASGFTFSSYGMSWVRQAPGKGLEWVSSISASGDSTFYADSVKGRFTISRDNNKNMVFLQVNSLRADDTAVYFCAKDWSQWLVGDAFDVWGRGTTVTVSS
VL: DIQLTQSPSTLSASVGDRVTITCRASQSVSLWVAWYQQRPGKAPKLLIYDGSTLQSGVPARFSGSGSGTEFTLTISSLQPDDFATYYCQQYKTFSTFGQGTKVEIK

IC50, B9 cell proliferation assay (murine IL-13 [2]): 0.776 nM
Kd (murine IL-13 [3]): 5.1 nM
koff (murine IL-13 [3]): 0.0198 s⁻¹
kon (murine IL-13 [3]): 3.9e+06 M⁻¹ s⁻¹
B3: BAK209B11 human IgG4 (antibody, V domains shown)
VH: VQLQESGGGGLVQPGGSLRLSCAASGFTFSSYGMSWVRQAPGKGLEWVSSISASGDSTFYADSVKGRFTISRDNNKNMVFLQVNSLRADDTAVYFCAKDWSQWLVGDAFDVWGRGTTVTVSS
VL: DIQLTQSPSTLSASVGDRVTITCRASQSVSLWVAWYQQRPGKAPKLLIYDGSTLQSGVPARFSGSGSGTEFTLTISSLQPDDFATYYCQQYKTFSTFGQGTKVEIKR

IC50 (read off the curve); TF-1 cell proliferation, 50 ng/ml non-human primate IL-13 [4]: ~90 nM
IC50 (read off the curve); TF-1 cell proliferation, 25 ng/ml human IL-13 [5]: ~70 nM
IC50, TF-1 cell proliferation assay (human IL-13 [6]): 44 nM
B4: BAK278D6 scFv (scFv, V domains shown)
VH: EVQLVQSGAEVKKPGASVKVSCKASGYTFRNYGLSWVRQAPGQGLEWMGWISANNGDTNYGQEFQGRITMTTETSTNTAHMELRSLRSDDTAVYYCVRDSSSNWARWFFDLWGKGTMVTVSS
VL: SYVLTQPPSVSVAPGQTARIPCGGNNIGSKLVHWYQQKPGQAPVLVVYDDGDRPSGIPERFSGSNSGNTATLTISRIDAGDEADYYCQVWDTGSDPVVFGGGTKLTVL

Continued, binder first:

B5: BAK502G9 IgG4 (antibody, V domains shown)
VH: QVQLVQSGAEVKKPGASVKVSCKASGYTFTNYGLSWVRQAPGQGLEWMGWISANNGDTNYGQEFQGRVTMTTDTSTSTAYMELRSLRSDDTAVYYCARDSSSSWARWFFDLWGRGTLVTVSS
VL: SYVLTQPPSVSVAPGKTARITCGGNIIGSKLVHWYQQKPGQAPVLVIYDDGDRPSGIPERFSGSNSGNTATLTISRVEAGDEADYYCQVWDTGSDPVVFGGGTKLTVL
IC50, HDLM-2 cell proliferation assay [7]: 4.6 nM
IC50, TF-1 cell proliferation assay [8]: 2 nM
IC50, TF-1 cell proliferation assay [9]: 1.9 nM

B6: BAK278D6 IgG (antibody, V domains shown)
VH: EVQLVQSGAEVKKPGASVKVSCKASGYTFRNYGLSWVRQAPGQGLEWMGWISANNGDTNYGQEFQGRITMTTETSTNTAHMELRSLRSDDTAVYYCVRDSSSNWARWFFDLWGKGTMVTVSS
VL: SYVLTQPPSVSVAPGQTARIPCGGNNIGSKLVHWYQQKPGQAPVLVVYDDGDRPSGIPERFSGSNSGNTATLTISRIDAGDEADYYCQVWDTGSDPVVFGGGTKLTVL
Kd (human IL-13 [10]): 13.5 nM
koff (human IL-13 [10]): 0.00741 s⁻¹
kon (human IL-13 [10]): 549000 M⁻¹ s⁻¹

B7: BAK1167F2 IgG4 (antibody, V domains shown)
VH: QVQLVQSGAEVKKPGASVKVSCKASGYTFEQTGVSWVRQAPGQGLEWMGWISANNGDTNYGQEFQGRVTMTTDTSTSTAYMELRSLRSDDTAVYYCARDSSSSWARWFFDLWGRGTLVTVSS
VL: SYVLTQPPSVSVAPGKTARITCGGNIIGSKLVHWYQQKPGQAPVLVIYDDGDRPSGIPERFSGSNSGNTATLTISRVEAGDEADYYCQVWDTGSDPVVFGGGTKLTVL
IC50, HDLM-2 cell proliferation assay [7]: 1.1 nM
IC50, TF-1 cell proliferation assay [9]: 1.1 nM
IC50, TF-1 cell proliferation assay [11]: 1 nM

B8: BAK1183H4 IgG4 (antibody, V domains shown)
VH: QVQLVQSGAEVKKPGASVKVSCKASGYTFTNYGLSWVRQAPGQGLEWMGWINYDGGNTQYGQEFQGRVTMTTDTSTSTAYMELRSLRSDDTAVYYCARDSSSSWARWFFDLWGRGTLVTVSS
VL: SYVLTQPPSVSVAPGKTARITCGGNIIGSKLVHWYQQKPGQAPVLVIYDDGDRPSGIPERFSGSNSGNTATLTISRVEAGDEADYYCQVWDTGSDPVVFGGGTKLTVL
IC50, HDLM-2 cell proliferation assay [7]: 3.5 nM
IC50, TF-1 cell proliferation assay [9]: 1 nM
IC50, TF-1 cell proliferation assay [11]: 0.9 nM
